Experimental data published in patent publication US20220267417A1 (UNIVERSIT GRENOBLE ALPES, published 2022).

Tests used:
[1] = molecular target: T1, OprF protein of Pseudomonas aeruginosa on bacteria of the CHA strain (Pseudomonas aeruginosa, UniProt P13794 25-350); assay: cell-based or functional assay
T1 sequence (looked up): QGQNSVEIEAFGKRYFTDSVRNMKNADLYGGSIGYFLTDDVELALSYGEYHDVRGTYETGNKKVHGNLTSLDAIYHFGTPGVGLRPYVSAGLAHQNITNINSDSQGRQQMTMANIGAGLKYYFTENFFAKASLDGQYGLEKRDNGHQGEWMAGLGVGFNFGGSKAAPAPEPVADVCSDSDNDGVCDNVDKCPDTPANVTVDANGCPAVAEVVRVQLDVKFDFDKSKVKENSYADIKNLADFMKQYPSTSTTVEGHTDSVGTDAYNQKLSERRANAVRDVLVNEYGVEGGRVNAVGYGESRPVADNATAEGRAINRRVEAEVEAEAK

[2] = molecular target: T2, OprF protein of Pseudomonas aeruginosa with N-terminal polyhistidine tag, in proteoliposomes (Pseudomonas aeruginosa, UniProt P13794 25-350, limits assumed); assay: ELISA on coated OprF proteoliposomes, anti-c-myc-peroxidase detection, one site-specific binding fit
T2 construct: Made by cell-free synthesis (E. coli lysate) in the presence of liposomes; inserted in the liposomal membrane, found oligomerized, in open and closed channel conformations; Genbank AFM37279.1 is printed for OprF in general; The sense primer starts at the ATG of the gene, so the signal peptide may be part of the construct; also called porin OprF; OprF membrane antigen; not shown: N-terminal …
T2 sequence (looked up): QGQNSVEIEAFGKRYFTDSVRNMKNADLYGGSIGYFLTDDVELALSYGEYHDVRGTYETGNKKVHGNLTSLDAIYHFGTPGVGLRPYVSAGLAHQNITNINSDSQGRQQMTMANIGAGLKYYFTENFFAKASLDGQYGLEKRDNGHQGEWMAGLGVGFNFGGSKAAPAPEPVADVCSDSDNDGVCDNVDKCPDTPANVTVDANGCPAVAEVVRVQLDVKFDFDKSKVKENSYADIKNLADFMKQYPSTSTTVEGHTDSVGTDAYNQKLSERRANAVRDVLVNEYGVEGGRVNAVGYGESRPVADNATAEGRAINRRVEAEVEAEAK
Description: By way of example, the dissociation constant Kd is determined for the scFv fragments E7, F8, F10 and G9, with an ELISA method.
For this purpose, 100 μl of OprF proteoliposomes (containing an OprF concentration of 1 μg/ml) contained in fixation buffer (0.1 M sodium carbonate, 0.1 M sodium bicarbonate) are fixed at the bottom of the wells of a 96-well plate (Thermo Scientific®) overnight at 4° C. and under stirring. The wells are then blocked for 1 h at 21° C. with 100 μl of TBS Tween (TBST) buffer containing 5% milk. After washing the wells with 100 μl of TBST buffer, 100 μl of scFv fragment (E7, F8, F10 or G9), at 1:50; 1:200; 1:400; 1:800; 1:1600 and 1:3200 dilutions in TBST buffer, are added to the corresponding wells and incubated for 1 h at 37° C. under stirring. After washing the wells, 100 μl of anti-c-myc-Peroxidase antibody (Roche) (1:10000 dilution in TBST buffer containing 5% milk) is added to the wells and incubated for 1 h at 37° C. under stirring. After washing the wells 3 times, 50 μl of TMB is added to the wells and the plate is incubated at ambient temperature and protected from light for approximately 15 min. 50 μl of 1 M HCl is then added and the absorbance of each well is measured at 450 nm. These absorbance data are then analyzed using the GraphPad Prism software (non-linear regression analysis, “one site-specific binding” equation) in order to calculate the dissociation constant Kd of each scFv fragment tested. By way of comparison, a measurement is also made on the buffer only.

Binder | cytotoxicity of P. aeruginosa towards macrophages (LDH release, A490-A680 nm) [1] | Kd [2] [nM]
scFv fragment E7 (scFv, Macaque scFv, format VH-(G4S)3-VL-6xHis-c-myc) scFv: QVQLEQSGAEVKQPGASVKVSCKASGYSFSSYGMNWVRQAPGQRPEWMGWINADTGKSTYAPGFKERFTFSLDTSVSTAYLTISSLKAEDTAVYYCVRSCRGGVCQLYHWGQGVLITVSSGGGGSGGGGSGGGGSDIELTQSPTSIAVSQGERVTISCTASSSVTTGYFHWYQQKPGFPPRLLVYGTSSLPSGVPARFSGSGSGTSYTLTISNMEAEDAAHYYCQQGHTIPLTFGGGTKVEIKHHHHHHEQKLISEEDL | ~0.67 fraction of cytotoxicity reduced | 213
scFv fragment F8 (scFv, Macaque scFv, format VH-(G4S)3-VL-6xHis-c-myc) scFv: QVQLEQSGAEVKQPGASVKVSCKASGYSFSSYGMNWVRQAPGQRPEWLGWINADTGKSTYAPGFKERFTFSLDTSVSTAYLTISSLKAEDTAVYYCVRSCRGGVCQLYHWGQGVLITVSSGGGGSGGGGSGGGGSEIELTQSPTSIAVSRGERVTVSCMASSSVRTGYLHWYQQKPGFPPRLLVYGTSSLPSGVPARFSGSGSGTSYTLTISSVEPEDVAHYYCQQGHTIPLTFGGGTKVEIKHHHHHHEQKLISEEDL | ~0.67 fraction of cytotoxicity reduced | 211
scFv fragment F10 (scFv, Macaque scFv, format VH-(G4S)3-VL-6xHis-c-myc) scFv: QVQLEQSGAEVKQPGASVKVSCKASGYSFNTYGMNWVRQAPGQRPEWMGWINADTGKSTYAPGFKERFTFSLDTSVSTAYLTISSLKAEDTAVYFCVRSCRGGVCQLYHWGQGVLVTVSSGGGGSGGGGSGGGGSDIELTQSPTSMAVSQGERVTISCTASSSVSTNYLHWYQQKPGFPPRLLVYRTSSLAPGVPARFSGSGSGTSYTLTISNMEAEDAAHYYCQQGNTIPLTFGGGTKVEIKHHHHHHEQKLISEEDL | – | 1490
scFv fragment G9 (scFv, Macaque scFv, format VH-(G4S)3-VL-6xHis-c-myc) scFv: QVQLEQSGAEVKHPGASVKVSCKASGYSFSTYGMNWVRQAPGQRPEWMGWINADTGKSTYAPGFKERFTFSLDTSVSTAYLTISSLKAEDTAVYYCVRSCRGGVCQLYHWGQGVLITVSSGGGGSGGGGSGGGGSELQMTQSPTSMAVSQGERVTISCTASSSVNTNYLHWYQQKPGFPPRLLVYGTSSLVAGVPARFSGSGSGTSYTLTISNMEAEDAANYYCQQGNTIPLTFGGGTKVEIKHHHHHHEQKLISEEDL | ~0.67 fraction of cytotoxicity reduced | 295
